Biological target: T1, PD-1 biotinylated dimer (Homo sapiens, UniProt Q15116)
T1 construct: also called PD-1 dimer protein
Experiment: BLI
Conditions: both partners purified

T1 sequence (Q15116 25-288): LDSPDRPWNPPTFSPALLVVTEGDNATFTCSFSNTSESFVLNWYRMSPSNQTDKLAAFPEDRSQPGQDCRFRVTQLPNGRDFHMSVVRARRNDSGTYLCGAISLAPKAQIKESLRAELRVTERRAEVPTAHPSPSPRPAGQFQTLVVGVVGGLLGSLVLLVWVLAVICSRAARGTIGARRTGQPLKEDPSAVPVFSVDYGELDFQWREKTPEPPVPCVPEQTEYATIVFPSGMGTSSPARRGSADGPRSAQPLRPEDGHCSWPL

KD, fold lower than that of the scFv of clone A35: 4 times
B1: scFv-His of anti-PD-1 clone 135c139d6 (scFv, V domains shown)
VH: EVQLVQSGAEVKKPGESLKISCKGSGYSFTNFYIHWVRQAPGQRLEWMGSIYPNYGDTAYNQKFKDRFVFSLDTSVSTAYLQISSLKAEDTAVYYCARGYSYAMDYWGQGTTVTVSS
VL: DIQMTQSPSSVSASVGDRVTITCSASQGISGDLNWYQQKPGKAPKLLIYHTSSLHSGVPSRFSGSGSGTDFTLTISSLQPEDFATYYCQYYSKDLLTFGGGTKLEIK
notes: source: purified

Source: publication PMC13108567, “Targeting PD-1^+ T cells with chimeric antigen receptors to reduce the HIV reservoir” (Science Advances, 2026)
